Laboratory results published in patent publication US20110318339A1 (FABRUS, published 2011).
Changes are numbered by the printed parent chain. Names may count otherwise.

B1: Fab VH5-51_IGHD5-18*01>3_IGHJ4*01 G100K/G104T G24T/S28R/G35V (H:KT TRV) & V3-4_IGLJ1*01 M94R/S96M (L:RM) (Fab, V domains shown)
VH: EVQLVQSGAEVKKPGESLKISCKTSGYRFTSYWIVWVRQMPGKGLEWMGIIYPGDSDTRYSPSFQGQVTISADKSISTAYLQWSSLKASDTAMYYCARRKYSYTYDYFDYWGQGTLVTVSS
VL: QTVVTQEPSFSVSPGGTVTLTCGLSSGSVSTSYYPSWYQQTPGQAPRTLIYSTNTRSSGVPDRFSGSILGNKAALTITGAQADDESDYYCVLYRGMGISYVFGTGTKVTVL
notes: Tested as Fab from E. coli (Plasmid A: CH1, His6, Flag; Plasmid E: CL lambda); also called H:KT TRV & L:RM; KT TRV / RM
B2: Fab VH5-51_IGHD5-18*01>3_IGHJ4*01 G100K/G104T G24T/S28R/G35V (H:KT TRV) & V3-4_IGLJ1*01 V91L/S96P S52G (L:LP S52G) (Fab, V domains shown)
VH: B1 VH
VL: B1 VL with S52G, V91L, R94M, M96P
notes: Tested as Fab from E. coli (Plasmid A: CH1, His6, Flag; Plasmid E: CL lambda); also called H:KT TRV & L:LP S52G
B3: Fab VH5-51_IGHD5-18*01>3_IGHJ4*01 G100K/G104T S28R (H:KT S28R) & V3-4_IGLJ1*01 (Fab, V domains shown)
VH: B1 VH with T24G, V35G
VL: B1 VL with R94M, M96S
notes: Tested as Fab from E. coli (Plasmid A: CH1, His6, Flag); Plasmid E: CL lambda; also called H:KT S28R & L:wt
B4: Fab VH1-46_IGHD6-6*01_IGHJ1*01 S102A/S103P/S104F/H111F I51V/N52L/S54T/G56H (H:APFF VLTH) & L6_IGKJ1*01 S28N/S30D/S31H (L:NDH) (Fab, V domains shown)
VH: QVQLVQSGAEVKKPGASVKVSCKASGYTFTSYYMHWVRQAPGQGLEWMGIVLPTGHSTSYAQKFQGRVTMTRDTSTSTVYMELSSLRSEDTAVYYCAREEYAPFSAEYFQFWGQGTLVTVSS
VL: EIVLTQSPATLSLSPGERATLSCRASQNVDHYLAWYQQKPGQAPRLLIYDASNRATGIPARFSGSGSGTDFTLTISSLEPEDFAVYYCQQRSNWPPWTFGQGTKVEIKR
notes: Tested as Fab from E. coli (Plasmid A: CH1, His6, Flag; Plasmid C: CL kappa); also called H:APFF VLTH & L:NDH; APFF VLTH / NDH
B5: Fab VH1-46_IGHD6-6*01_IGHJ1*01 S102A/S103P/S104F/H111F G56H (H:APFF G56H) & L6_IGKJ1*01 (Fab, V domains shown)
VH: B4 VH with V51I, L52N, T54S
VL: not shown
notes: Tested as Fab from E. coli: VH cloned into Plasmid A (CH1, His6 and Flag tags), kappa VL into Plasmid C (CL kappa); also called H:APFF G56H & L:wt
B6: Fab VH1-46_IGHD6-6*01_IGHJ1*01 S102A/S103P/S104F/H111F I51V/N52L/S54T/G56H (H:APFF VLTH) & L6_IGKJ1*01 S28N/S30D/S31H S52L/A55S (L:NDH LS) (Fab, V domains shown)
VH: B4 VH
VL: B4 VL with S52L, A55S
notes: Tested as Fab from E. coli (Plasmid A: CH1, His6, Flag; Plasmid C: CL kappa); also called H:APFF VLTH & L:NDH LS; APFF VLTH / NDH LS

Experiments:
[1] = biological target: T1, recombinant human DLL4 (Cat# 1506-D4/CF, R&D Systems) (human, UniProt Q9NR61 27-529); experiment: ELISA, hDLL4 coated 0.5 ng/ul, Fab 1.56 nM
T1 construct: Bought protein; also called hDLL4; h DLL4
Description: (§1) The plate was blocked by adding 1% BSA in Tris-buffered Saline Tween (TBST) and incubating for 1 hour at room temperature followed by washing 2 times with 150 μl TBST. A Fab antibody was serially diluted in 1% BSA in PBS. A 50 μl aliquot of each serial dilution was added, in triplicate, to each well and the plate was incubated for 1 hour at room temperature followed by washing 2 times with TBST. 50 μl of either goat anti-human kappa HRP conjugated secondary antibody (Cat # A7164-1 mL, Sigma-Aldrich) or goat anti-human lambda HRP conjugated secondary antibody (Cat # L1645-1 ml, Sigma-Aldrich), diluted 1:1000 in 1% BSA in PBS, was added to each well and the plate was incubated for 30 minutes at room temperature followed by washing 3 times with 200 μl TBST. Finally, 50 μl TMB one-component reagent (Cat # TMBW-1000-01, BioFax) was added and allowed to develop for 2 minutes at room temperature. The reaction was immediately halted by the addition of 50 μl 0.5M H₂SO₄ and the absorbance at 450 nm was measured using an ELISA plate reader.

[2] = biological target: T1, recombinant human DLL4 (Cat# …); experiment: ELISA, hDLL4 coated 0.5 ng/ul, Fab 12.50 nM
Description: as §1

[3] = biological target: T1, recombinant human DLL4 (Cat# …); experiment: ELISA, hDLL4 coated 0.5 ng/ul, Fab 0.78 nM
Description: as §1

[4] = biological target: T1, recombinant human DLL4 (Cat# …); experiment: ELISA, hDLL4 coated 0.5 ng/ul, Fab 6.25 nM
Description: as §1

[5] = biological target: T1, recombinant human DLL4 (Cat# …); experiment: ELISA, hDLL4 coated 0.5 ng/ul, Fab 100.00 nM
Description: as §1

[6] = biological target: T1, recombinant human DLL4 (Cat# …); experiment: ELISA, hDLL4 coated 0.5 ng/ul, Fab 25.00 nM
Description: as §1

[7] = biological target: T1, recombinant human DLL4 (Cat# …); experiment: ELISA, hDLL4 coated 0.5 ng/ul, Fab 3.13 nM
Description: as §1

[8] = biological target: T1, recombinant human DLL4 (Cat# …); experiment: ELISA, hDLL4 coated 0.5 ng/ul, Fab 50.00 nM
Description: as §1

[9] = biological target: T2, full-length human DLL4 expressed on the surface of CHO cells (human, UniProt Q9NR61 26-685); experiment: flow cytometry competition, 250 nM biotinylated Notch-Fc as competitor, Fab 50 nM
T2 construct: also called CHO-DLL4; DLL4-expressing CHO cells
Description: (§2) Streptavidin-PE was used as a detection molecule.
(§3) Fab was 5-fold serially diluted in 2% BSA/PBS from a starting concentration of 50 nM. […] PE-labeled streptavidin (Cat# 21627, Pierce-Thermo Scientific) was then added to a final dilution of 1:5 followed by incubation for 10 minutes at room temperature. The cells were then washed twice in 2% BSA/PBS and analyzed by flow cytometry on a BD FACSAria.

[10] = biological target: T2, full-length human DLL4 expressed on the …; experiment: flow cytometry competition, 250 nM biotinylated Notch-Fc as competitor, Fab 10 nM
Description: as §2, §3

[11] = biological target: T2, full-length human DLL4 expressed on the …; experiment: flow cytometry competition, 250 nM biotinylated Notch-Fc as competitor, Fab 2 nM
Description: as §2, §3

[12] = biological target: T3, recombinant mouse DLL4 (Cat# 1389-D4-050/CF, R&D Systems) (mouse, UniProt Q9JI71 28-525); experiment: ELISA, mDLL4 coated 0.5 ng/ul, Fab 10.00 nM
T3 construct: Bought protein; also called mDLL4
Description: as §1

[13] = biological target: T1, recombinant human DLL4 (Cat# …); experiment: ELISA, hDLL4 coated 0.5 ng/ul, Fab 0.16 nM
Description: (§4) In this example, an ELISA binding assay was used to assess the dose-dependent binding of Fab antibodies to recombinant human DLL4 and recombinant mouse DLL4.
as §1

[14] = biological target: T1, recombinant human DLL4 (Cat# …); experiment: ELISA, hDLL4 coated 0.5 ng/ul, Fab 0.63 nM
Description: as §1

[15] = biological target: T3, recombinant mouse DLL4 (Cat# …); experiment: ELISA, mDLL4 coated 0.5 ng/ul, Fab 0.63 nM
Description: as §1

[16] = biological target: T1, recombinant human DLL4 (Cat# …); experiment: ELISA, hDLL4 coated 0.5 ng/ul, Fab 0.31 nM
Description: as §4, §1

[17] = biological target: T3, recombinant mouse DLL4 (Cat# …); experiment: ELISA, mDLL4 coated 0.5 ng/ul, Fab 2.50 nM
Description: as §4, §1

[18] = biological target: T3, recombinant mouse DLL4 (Cat# …); experiment: ELISA, mDLL4 coated 0.5 ng/ul, Fab 0.08 nM
Description: as §1

[19] = biological target: T1, recombinant human DLL4 (Cat# …); experiment: ELISA, hDLL4 coated 0.5 ng/ul, Fab 0.08 nM
Description: as §1

[20] = biological target: T1, recombinant human DLL4 (Cat# …); experiment: ELISA, hDLL4 coated 0.5 ng/ul, Fab 10.00 nM
Description: as §4, §1

[21] = biological target: T1, recombinant human DLL4 (Cat# …); experiment: ELISA, hDLL4 coated 0.5 ng/ul, Fab 1.25 nM
Description: as §4, §1

[22] = biological target: T3, recombinant mouse DLL4 (Cat# …); experiment: ELISA, mDLL4 coated 0.5 ng/ul, Fab 0.31 nM
Description: as §1

[23] = biological target: T1, recombinant human DLL4 (Cat# …); experiment: ELISA, hDLL4 coated 0.5 ng/ul, Fab 2.50 nM
Description: as §4, §1

[24] = biological target: T3, recombinant mouse DLL4 (Cat# …); experiment: ELISA, mDLL4 coated 0.5 ng/ul, Fab 5.00 nM
Description: as §4, §1

[25] = biological target: T3, recombinant mouse DLL4 (Cat# …); experiment: ELISA, mDLL4 coated 0.5 ng/ul, Fab 0.16 nM
Description: as §1

[26] = biological target: T1, recombinant human DLL4 (Cat# …); experiment: ELISA, hDLL4 coated 0.5 ng/ul, Fab 5.00 nM
Description: as §4, §1

[27] = biological target: T3, recombinant mouse DLL4 (Cat# …); experiment: ELISA, mDLL4 coated 0.5 ng/ul, Fab 1.25 nM
Description: as §4, §1

T3 sequence (Q9JI71 28-525 limits assumed): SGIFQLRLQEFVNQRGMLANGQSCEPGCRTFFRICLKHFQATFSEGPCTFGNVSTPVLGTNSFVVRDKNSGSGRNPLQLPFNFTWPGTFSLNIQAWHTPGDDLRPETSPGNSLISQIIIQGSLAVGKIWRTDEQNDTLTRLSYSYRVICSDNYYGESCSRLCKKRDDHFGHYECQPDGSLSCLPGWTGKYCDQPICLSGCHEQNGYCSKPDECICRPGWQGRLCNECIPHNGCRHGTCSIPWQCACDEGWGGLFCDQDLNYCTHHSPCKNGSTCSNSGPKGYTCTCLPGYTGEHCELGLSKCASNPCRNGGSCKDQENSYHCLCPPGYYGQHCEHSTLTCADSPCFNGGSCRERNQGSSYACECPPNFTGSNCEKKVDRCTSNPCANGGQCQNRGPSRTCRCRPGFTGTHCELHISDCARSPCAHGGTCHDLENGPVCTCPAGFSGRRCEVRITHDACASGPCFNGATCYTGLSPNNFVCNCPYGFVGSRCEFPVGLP

Row | Binder | ELISA absorbance at 450 nm [1] | ELISA absorbance at 450 nm [2] | ELISA absorbance at 450 nm [3] | ELISA absorbance at 450 nm [4] | ELISA absorbance at 450 nm [12] | ELISA absorbance at 450 nm [13] | ELISA absorbance at 450 nm [14] | ELISA absorbance at 450 nm [15] | ELISA absorbance at 450 nm [16] | ELISA absorbance at 450 nm [17] | ELISA absorbance at 450 nm [18] | ELISA absorbance at 450 nm [19] | ELISA absorbance at 450 nm [20] | ELISA absorbance at 450 nm [21] | ELISA absorbance at 450 nm [22] | ELISA absorbance at 450 nm [23] | ELISA absorbance at 450 nm [24] | ELISA absorbance at 450 nm [25] | ELISA absorbance at 450 nm [26] | ELISA absorbance at 450 nm [27] | also measured
1 | B1 | 0.148 A450 | 0.294 A450 | 0.145 A450 | 0.229 A450 |  |  |  |  |  |  |  |  |  |  |  |  |  |  |  |  | ELISA absorbance at 450 nm [5]: 1.07 A450; ELISA absorbance at 450 nm [6]: 0.421 A450; ELISA absorbance at 450 nm [7]: 0.167 A450; ELISA absorbance at 450 nm [8]: 0.661 A450
2 | B2 |  |  |  |  |  |  |  |  |  |  |  |  |  |  |  |  |  |  |  |  | signal of Notch-Fc bound to CHO-DLL4 (streptavidin-PE) [9]: 105; signal of Notch-Fc bound to CHO-DLL4 (streptavidin-PE) [10]: 190; signal of Notch-Fc bound to CHO-DLL4 (streptavidin-PE) [11]: 250
3 | B3 | 0.148 A450 | 0.226 A450 | 0.138 A450 | 0.203 A450 |  |  |  |  |  |  |  |  |  |  |  |  |  |  |  |  | ELISA absorbance at 450 nm [5]: 0.67 A450; ELISA absorbance at 450 nm [6]: 0.333 A450; ELISA absorbance at 450 nm [7]: 0.164 A450; ELISA absorbance at 450 nm [8]: 0.524 A450
4 | B4 |  |  |  |  | 1.22 A450 | 0.407 A450 | 1.09 A450 | 0.206 A450 | 0.683 A450 | 0.583 A450 | 0.063 A450 | 0.189 A450 | 2.25 A450 | 1.4 A450 | 0.105 A450 | 1.83 A450 | 0.833 A450 | 0.081 A450 | 1.92 A450 | 0.317 A450 | 
5 | B5 |  |  |  |  | 0.088 A450 | 0.079 A450 | 0.168 A450 | 0.052 A450 | 0.103 A450 | 0.061 A450 | 0.048 A450 | 0.071 A450 | 1.2 A450 | 0.264 A450 | 0.049 A450 | 0.535 A450 | 0.07 A450 | 0.048 A450 | 0.882 A450 | 0.054 A450 | 
6 | B6 |  |  |  |  | 1.55 A450 | 0.593 A450 | 1.4 A450 | 0.404 A450 | 0.85 A450 | 0.983 A450 | 0.078 A450 | 0.259 A450 | 2.25 A450 | 1.65 A450 | 0.205 A450 | 1.96 A450 | 1.28 A450 | 0.142 A450 | 2.06 A450 | 0.604 A450 | signal of Notch-Fc bound to CHO-DLL4 (streptavidin-PE) [9]: 30; signal of Notch-Fc bound to CHO-DLL4 (streptavidin-PE) [10]: 30; signal of Notch-Fc bound to CHO-DLL4 (streptavidin-PE) [11]: 117
